Data from US20240067944A1 (published 2024).
One block for each molecule: values may come before it.

Experiments:
[1] = biological target: human plasma-derived FX (Haematologic Technologies Inc, USA) (human) (UniProt P00742); assay: cell-based or functional assay
[2] = biological target: T1, human plasma-derived FX (Haematologic Technologies Inc, USA) (human, UniProt P00742 41-179; P00742 183-488); assay: cell-based or functional assay
[3] = biological target: T1, human plasma-derived FX (Haematologic …); assay: SPR, FX captured on immobilised anti-GLA-FX antibody, steady state analysis, 25 C
Experimental: Briefly, an anti-GLA-FX, prepared recombinantly as described above, was immobilised on a CM4 sensor chip or a Xantec HLC200M using standard amine coupling chemistry at pH 5. 10 nM FX (Haematologic Technologies, USA) was injected at a flow rate of 10 μL/min for 30 seconds. Subsequently 1000, 100, 10, 1, 0.1 and 0 nM of VHH polypeptide compound, according to Table 9, below were injected at a flow rate of 50 μL/min for 200 seconds to allow for binding to FX followed by a flow of 10 minutes with a running buffer (10 mM HEPES, 150 mM NaCl, 5 mM CaCl₂), 0.05% (v/v) Surfactant P20, 1 mg/mL bovine serum albumin, pH 7.4) injection allowing for dissociation from FX. The running buffer was also used for dilution of anti-FX VHH polypeptide compounds. Regeneration of the chip was achieved using a regeneration buffer consisting of 50 mM EDTA in running buffer, 30 seconds contact time, and a 30 μL/min flow rate. The binding data were collected at 25° C. and were analysed according to a 1:1 model using BiaEvaluation 4.1 supplied by the manufacturer (Biacore AB, Uppsala or Bruker Analyser).
(§1) Therefore, the reported KD values are determined based on steady state analysis.

[4] = biological target: T2, Benefix (Pfizer Inc, USA), FIX (human, UniProt P00740 47-461); assay: SPR, FIX (Benefix) captured on immobilised anti-GLA-FIX antibody, steady state analysis, 25 C
T2 construct: Bought product; also called FIX (Benefix®)
T2 sequence (P00740 47-461 T194A limits assumed): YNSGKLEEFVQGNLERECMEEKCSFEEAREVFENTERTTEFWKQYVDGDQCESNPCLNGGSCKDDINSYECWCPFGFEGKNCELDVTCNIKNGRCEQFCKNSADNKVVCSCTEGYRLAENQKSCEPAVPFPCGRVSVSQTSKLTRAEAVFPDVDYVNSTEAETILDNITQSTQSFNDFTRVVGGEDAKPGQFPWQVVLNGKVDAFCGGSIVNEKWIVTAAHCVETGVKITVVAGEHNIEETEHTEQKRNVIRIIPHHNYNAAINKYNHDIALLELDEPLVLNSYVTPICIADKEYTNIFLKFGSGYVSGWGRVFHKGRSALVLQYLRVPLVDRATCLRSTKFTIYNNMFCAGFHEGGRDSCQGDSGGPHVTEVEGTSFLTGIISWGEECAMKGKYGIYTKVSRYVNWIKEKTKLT
Experimental: Briefly, anti-GLA-FIX, prepared recombinantly as described above, was immobilised on a CM4 sensor chip or a Xantec HLC200M using standard amine coupling chemistry at pH 5. FIX (10 nM) was injected at a flow rate of 10 μL/min for 1 minute. Subsequently 1000, 100, 10, 1, 0.1 and 0 nM of VHH polypeptide compound were injected at a flow rate of 30 μL/min for 4 minutes to allow for binding to the FIX (Benefix®) followed by a flow of 5 minutes running buffer (10 mM HEPES, 150 mM NaCl, 5 mM CaCl₂), 0.05% (v/v) Surfactant P20, 1 mg/mL bovine serum albumin, pH 7.4) injection allowing for dissociation from FIX. The running buffer was also used for dilution of anti-FIX VHH polypeptide compounds. Regeneration of the chip was achieved using a regeneration buffer consisting of 50 mM EDTA in running buffer, 30 seconds contact time, and a 30 μL/min flow rate. The binding data were collected at 25° C. and were analysed according to a 1:1 model using BiaEvaluation 4.1 supplied by the manufacturer (Biacore AB, Uppsala).
as §1

T1 sequence (P00742 41-179, chain 1 of 2): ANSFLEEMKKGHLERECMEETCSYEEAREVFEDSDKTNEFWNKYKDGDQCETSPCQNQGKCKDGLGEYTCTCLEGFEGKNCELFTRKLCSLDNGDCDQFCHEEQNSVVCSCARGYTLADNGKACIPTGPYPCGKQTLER
T1 sequence (P00742 183-488, chain 2 of 2): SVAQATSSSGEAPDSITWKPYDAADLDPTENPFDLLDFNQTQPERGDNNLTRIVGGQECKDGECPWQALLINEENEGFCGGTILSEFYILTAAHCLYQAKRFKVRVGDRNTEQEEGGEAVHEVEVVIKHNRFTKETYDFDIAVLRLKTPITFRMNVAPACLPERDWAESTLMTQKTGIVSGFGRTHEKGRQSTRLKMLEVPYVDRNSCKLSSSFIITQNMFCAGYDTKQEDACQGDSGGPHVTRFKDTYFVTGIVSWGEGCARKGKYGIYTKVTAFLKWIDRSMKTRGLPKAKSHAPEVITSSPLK
Chain of human plasma-derived FX (Haematologic Technologies Inc, USA) (human) (P00742 41-179, chain 1 of 2): as the sequence (P00742 41-179, chain 1 of 2) above
Chain of human plasma-derived FX (Haematologic Technologies Inc, USA) (human) (P00742 183-488, chain 2 of 2): as the sequence (P00742 183-488, chain 2 of 2) above

KM (nM) of FX activation by 0.1 nM FIXa on phospholipid vesicles with 300 nM antibody [1]: 53.5 nM
kcat/KM (1/(min * nM)) of FX activation by 0.1 nM FIXa with 300 nM antibody [1]: 500000 M⁻¹ s⁻¹
Molecule: emicizumab sequence identical analogue (SIA) (bispecific antibody)

KM (nM) of FX activation by 0.1 nM FIXa on phospholipid vesicles with 5 nM compound [2]: 5.9 nM
kcat/KM (1/(min * nM)) of FX activation by 0.1 nM FIXa with 5 nM compound [2]: 5.5e+06 M⁻¹ s⁻¹
Kd [3]: 232 nM
Kd [4]: 4.8 nM
B1: Cmpd #6 (anti-FX/anti-FIX(a) VHH polypeptide derivative) (bispecific antibody)
chain: DVQLVESGGGVVQPGGSLQLSCAASGRTHSRYAMGWFRQAPGQEREFVAAISRRGGSTNYADSVKGRFTISRDNSKNTVYLQMDSLRPEDTALYYCAADDSSGDGYLDYWGQGTLVTVSSGGGGSGGGSEVQLVESGGGVVQPGGSLQLSCAASGRTFNIYTMSWFRQAPGQEREFVAGLRWTDSSTEYADSVKGRFTISRDNSKNTVYLQMDSLRPEDTALYYCAADRSFLFAQALGATKNYEYWGQGTLVTVSSGGGGCSCHHHHHH
modifications: C16 diacid protractor (P2) via linker LP1 on Cys5 and Cys7 in C-term extension (SEQ ID NO: 8)
notes: Single chain of two VHH: anti-FX (N-terminal) and anti-FIX(a) (C-terminal)

KM (nM) of FX activation by 0.1 nM FIXa on phospholipid vesicles with 5 nM compound [2]: 6.9 nM
kcat/KM (1/(min * nM)) of FX activation by 0.1 nM FIXa with 5 nM compound [2]: 4.17e+06 M⁻¹ s⁻¹
Kd [3]: 350 nM
Kd [4]: 3 nM
B2: Cmpd #15 (anti-FX/anti-FIX(a) VHH polypeptide derivative) (bispecific antibody)
chain: DVQLVESGGGVVQPGGSLQLSCAASGGTKRRLAMGWFRQAPGQEREWVAAISRRGGSTNYADSVKGRFTISRDNSKNTVYLQMDSLRPEDTALYYCAADDSVGDGYLDYWGQGTLVTVSSGQAPGQEVQLVESGGGVVQPGGSLQLSCAASGRTFNIYTMSWFRQAPGQEREFVAGLRWTDSSTEYADSVKGRFTISRDNSKNTVYLQMDSLRPEDTALYYCAADRSFLFAQALGATKNYEYWGQGTLVTVSSGQACPC
modifications: C16 diacid protractor (P2) via linker LP1 on Cys4 and Cys6 in C-term extension (SEQ ID NO:9)
notes: Single chain of two VHH: anti-FX (N-terminal) and anti-FIX(a) (C-terminal); also called VHH1.15-L1-2-VHH2.15-E
